# Reference: the DeepSol protein solubility set
# Test: soluble on expression in E. coli; label from the status in PepcDB or PDB records
row,Sequence,soluble on expression in E. coli
1,MQAYTYTIIQRLDNLNQQRIDRALALMDSQSQQVFHLIPALLNYNHPVIPGYYDADVPFGVHGLELNPIQQQFIDDIQLAIGQPLKTAEKPAILGLYTMGSTSSIGQSTSSDLDIWVCISPEMDCDERELLTNKCLLITDWAQSQGVEANFFLMDEERFRSNHSEEMTGDNCGSSQHLLLLDEFYRSAVRIAGQRLLWQIVPPEMEECYDEYVSQLCSDGYIDCSEWIDFGKLNRIPAEEYFGSNLWQLYKSIDSPYKSVLKAILLEAYSWEYPHTQLLSIDTKRRFFAHEPDLYGMDAYYLMLEKVTRYLERIQDDTRLDLVRRCFYLKTHEKLSREPDVGSVAWRREALSDMIAKWNWDDSVVAELDDRRNWKVEQVKVVHHALLDALMQSYRNLIQFARRNDITSAISPQDISILARKLYAAFEVLPGKVTLLNPQISPDLHEADLSFIEVKEGGVNKSGWYLYKQPLIAHRILGQPCLEHHEYLSKLVSWAFFNGLITESTRLHAVVREAQLDIDKFYQMVSDLRNTFALRKRRPTMQALASPCEISQLAMFINFENDPTSELSGRSLKVDVKNTDIFSFGPEHKNLVGSVDLVYRNSWHEVRTLHFKGETAMLDALKTILGKMHQDALPPESVDVFCYAKNMRGVMRNMVYQLLAECIDLRLKPVEQEKRRRFKAMRLGNQTYGLFFERRGVSVQKLENSIDFYRSISTNKLKGSPLLMLDREQEYQLPEAVDGFASEGLVQFFFEDNEDGFNIYVLDESNQVEVYHQFSGSKDEMIASVNSFYTSVKDDSRVASKFINFNLPQYYQIIHPEEGNAYIIPYRNDGCSP,not soluble
2,MYAIAEDTLPARVLKELLLYRRRYPEHRQSASEADEIRRIEQVQLPRIAAFIEAGEPIEFVLPAFPAKSPNPGKVLDSRPDMAERLSLSFLNHLCQRIQLFYAPGAKITVCSDGRVFGDLVRIGDAHISAYQDALRLMIEEIGATHIGVFNLEDVRAFEAQRDNHEQLRQLLIGGYAEPLESIRETLLASEEGLLLYRAITRFLYEDGLTPDYQGSKTALQRDAKERAYGVIQRSWAWGALLADQFPRAIRLSIHPQPADSLKFGIHMMPTRDDWLTPWHGVAVNTEDRFVLMKRSEVLELGGELVQINGQPSHYRLPARAARRAAVALEHHHHHH,not soluble
3,MGSDKIHHHHHHMSLCLFCDQPFTGDLDMRRLLLPGKSKTSCLCPSCRQLFAQIGTAFCPQCGRQQDSGEICQDCQKWRRIYQGNFLHNQAVYCYNQAFHDLMVRYKRYGDYLLCQVLQELAAPAVQKLAADYYVPVPTSPEHRKKRGYDTVWEIFTPLLPLTPLLAKKAGAGAQGEKDKKARMQAKQNFFLNPEFRGTITGKIILLDDIYTTGRTLYHARDAIEKAFPKCQVESFSISR,not soluble
4,MAEPARARPKITPETQHYWDGAKQGELRLQRCDSCAHAYFPPRPFCPKCGSREVSVFKASGKGTLYSYVINHRPLAAGFTEPYAIAVVELEEGPRMMSNILECPQTPEALELDMKLEVTFQKIDDNLTLPQFRPAKG,not soluble
5,MVMIMRICIQPVGDVNDEILKFLKKKFGEVFGMCEILPKIDIPIYAYNFSRGQFNSTLILKSLPTVEDIVLGVTEVDIYADNLNFVFGEAELFGKRALISLARLRPEFYGLPPNKDVLKIRALKEAIHEIGHVLGLIHCENKRCVMSFSNSIIDVDLKDWRYCKKCLKKLQDRGIYISILEHHHHHH,not soluble
6,SLCDKIFHNLSGKTLVATPYVITKGIYHKSLIYMLSHTEEGAIGLIFNRLVNHVDLKSFFKIKEDKITSQVIVPIYLGGPIEHEKGFFLHSRDYNKNLLLDFHNDLAVSSNLEISEDIAFGQGPKNSLFIVGYTAWKPGQLEEELEKNLWLVMDCNKEFIFADNPENKWHNALKHLGIDEMYFSSQIGNA,soluble
7,MIDVIEAGLFTTVQDGGRFGYRHAGVPAGGAMDAWAYRLANALVGNNGDEAVLEATIAGPTLRFRVEAVVAVCGGDFPCTLNGRTFALWKPMAVEPGDVLEVGVCRTGFRAYIAVSGGIDVPPVMGSRSTYVPAQLGGLSGRPLQRGDALPVGVTHGRRVIGRMRWGLASAARRYIGGKTKTVRAVPGPEYDEFTPASRRQFFAARYEVTTQSDRIGYRLSGPTLALVREREMVSEAVVFGTVQVPASGQPIVLMADSQTTGGYPRIAQVAAVDLPILAQARPGDFIQFQPIGPEEAMWLYKEQQQRLARWITAIRRQWEGER,not soluble
8,MGSDKIHHHHHHMTPSDTNAPVDRLKIGFVLARSFTLSAFALFVDTLRLASDEFDRSGRVLADWDVLGSTRHLITSSCGVQVAPTSDLVEDPSQFQFIVVVGGLLNNEQPIDRETAAFLKKAAAKNVKLIGVCTGSFILAELGLMKSHRTCVSWLHYNAFRERFPDLQVRSDRIFNLDRTRGSCVGGSSAADMAALIVRRHISKDAERNALEVLHIEKARSALAIQTRKPLSIECNDPRIRATLIMMEQHIEGNLPIQDLAAAVGLSRRQLERLFISETKSSPAMIYRRVRLERAKHLLVQSKAPLVEIALEVGFGNASHFAKVFAQTFGQSPTGLRTAIRATL,not soluble
9,GSHMVNIIQKFIPVGANNRPGYAMKPKYITVHNTANTAVGADAAAHARYLKNPDTTTSWHFTVDDKEIYQHLPLNENGWHAGDGNGSGNRASIGIEICENADGDFAKATANAQWLIKTLMAEHNISLANVVPHKYWSGKECPRKLLDKWDSFKAGIG,soluble
10,MASKMDTETHYSDVWVVIPAFNEAAVIGKVVTDVRSVFDHVVCVDDGSTDGTGDIARRSGAHLVRHPINLGQGAAIQTGIEYARKQPGAQVFATFDGDGQHRVKDVAAMVDRLGAGDVDVVIGTRFGRPVGKASASRPPLMKRIVLQTGARLSRRGRRLGLTDTNNGLRVFNKTVADGLNITMSGMSHATEFIMLIAENHWRVAEEPVEVLYTEYSKSKGQPLLNGVNIIFDGFLRGRMPR,not soluble
11,MPDSDTGSNMAHTMTAAVQQAQGVDNPDDLAAVAMALATGAVKGARGNSGVVLSQVLRGIAHHADSGRIDAHVIQEALRSSLDFVAAAISDPVEGTVITVLRAAAIAATNSEDRSLAAVVSVAAHAARIALAETPSQLQVLRDAKVVDAGGQGLVILLDCLEHVVTGTATSYDPHIIETTEQQQSHGTSGYLEVMCFIAGVEVSHLHDLLAPLGDCLVIGPISDTSATVHIHSTDAATVISTLYATGTITDLHIEVLPETPKVVHPKRIVLALTPPGDLAQLYTDAGALVVVRDGHHFAIARSTNLGQAETPLADGIEIVNELVARSHQSGAQEVILLPNGLLTTQEMAAVERSSQAFKQSITMLPTGSLVRGLAALSVHDPQQSLAVATYAMTEAMSGMRTAVIERAEHAALTPAGACAKGDLLVHLGTEPIAVAEQPEEALRIACRRLLDIGGEQILILARKELALTPDNHSLTGPHTDVEINQYDVDRLGALIEIGVE,not soluble
12,MMPSQITRSSHSSLPEVAPASGDATGVSEQTPQQARTVAFFSSGELAVAFGRTSAAPEQDSVRLLSALQRELDKQHPSWHTVAQLCQSLAEVGTTEQGWHQLASEDQLPALRELLDRCTHRLADMPAAHASHDSLSQACEGLRTARLHQSVARLTARPSSLARAMADLLTLTHLDPETLGAEPPVISSYTLFSHFVRTAKQRTADLNDSLQRQPDAVVSLLRSHADTLNDLEMLPGALQALTENCQDAPARNELRELAEVAGALLQLLLEHDLLPRLEEISIEPGEA,not soluble
13,MGSDKIHHHHHHMTSQDTADTGMADMDMTDTGMFLAKADIFASLTPEEDRAWSQLCTVESVSGGTIVLDYGIRPEIVLVVLSGALRATLRVSAGKELFLDMIGPGGTMAEMDAIRAEGYNLCLMATTDATLVRMPVDVFNDIIAQKHTVCLSLLSVLVQRMHVLHARICEFSYLDVRHRLYTTLLRLSKPSEDKPQQRTISPVIIHAALAEHVGARRETVSREMSRLVQDGVIERNRNAIVIRQPHELLRRLSQFDFA,not soluble
14,MKCSNEKVVNQEQSYESMDKFLDGVQEVAYIHSNQNVIGSSKAENHMSRWAAHDVFELKQFSQLPANIAVCSSKTYKEKVDADTLPHTKKGQQPSEGSISLPLYISNPVNQKKKKVYHTNQTTFIIGETPKGIRRKQFEEMASYFNSSSVNEFAKHITNATSEERQKMLRDFYASQYPEVKEFFVDSVSQFNNSSFEKGEQRTRKKSDKRESLIKPRLSDSETLSFKDSTNKISQVCSLKTYKRKSVKFQNHISYREEVFFNDAETKKSPVSSTQEIDSGKNSQASEDTVTSRSLNSESETRERRLENTMKDQQDLTRTGISRKEPLLKLENKKIENPVLENTSVISLLGDTSILDDLFKSHGNSPTQLPKKVLSGPMEKAKQRPKDFWDILNEQNDESLSKLTDLAVIETLCEKAPLAAPFKRREEPATSLWKSNEKFLWKKFSPSDTDENATNTQSTT,not soluble
15,MIDNLIKKEFLAHKEALEKSLEGLQEALKQSVHLLIETLENQGKILICGNGGSASDAQHFAAELTGRYKLERKGLSAISLNTDISALTAIANDYGYEEVFARQVEALGVKNDVLIGISTSGNSKNVLKAYEKAKDLEMKTLSLAGRDGGKMKPLSDMALIVPSDDTPRIQEMHILMIHILCDCIERHFAHKN,not soluble
16,MKVGVFTVLYQQLPLEDMLDKVAAMGIEAVELGTGNYPGNAHCDPDALLDQPEKIKALKKAVADRGLVISALSCHGNPLHPDKTFAKQSHDTWRKTVRLAEQLEVPVINAFSGCPGDHPGAKYPNWVTCSWPPDYLEILKWQWEEVVIPYWREEAAFAKEHGITQIAFEMHPGFVVYNPETLLKLREHVGEAIGANFDPSHLLWQGIDPVEAIKLLGREKAIFHVHAKDTYLDEANIRKNGVLDTKHYSQILDRSWVFRTVGYGQSEKMWRDIVSALRAVGYDYVLSIEHEDMLASIDEGLSKAVALLKKVLFKEELPEMWWA,not soluble
17,MKKKILKVATALTIMGGVAFSAEGATAKAELAAKPQQASQAIFKDVPAGHWSYEAIQTLAEQEIMLGYGNGVFGFGHNVTREQVAALIYRALDLDEEFGEDEELESPYNDIVDDNSTMFPFEVLAVTELGIFTGDEKGNFRPKDTLTRAEMAQVLTRAFGLQVQGLAGFKDVPKGHWAENAINAVGSNGISVGDGNGNFAPNMKVTREQYAQFLFRAL,not soluble
18,MGSDKIHHHHHHMTEAAEAGNRGFEDYYVNIGFTPDRLVSMLSLTGLSSVHSVVAFYDDRPAGFILNGIRMIGGKQVAWNGGTAVVPELRRQGIGQKLMAATVECYEEQGVELATLEAFRINERAIALYETFGYHIVDQLCFLQHIGALETSFRSKSVGENDYRVARGTAHDVRLLSFYQHTAPWRTQWFALRGGQSILVKDALNHTIGYALYERVFDGEGSLASIVLYQCEAAPGRDDADEIVREALDALFAPHDEPCKRTTFNMPRANERVVRILQEAGFTDAHTADGIPFEQVYMVRKGKDDR,not soluble
19,MLSVAGHRFASLATTPVLRMGLARCFSSVTGPFQCPPLPYVKNALEPHMSAETLTYHHDKHHQTYVDTLNSIAAENSTIASKTLEQIIKTETGKPFNQAAQVYNHTFFFNNLAPNGGGEPTGKIAELITRDFGSFEKFKEDFSAAAVGHFGSGWVWLIADDGKLKIVQGHDAGNPIRESKTPLMNIDVWEHAYYIDYRNARAQYVKNYWNLVNWDFVNDNVAKAGI,soluble
20,MSSDPDKMMSKADKMTKLTLTRWSADWRGATELYEQAANGFRASNKYEKAKVALEKASKGQEMQASPWDAAKHMESAAALAQKLSIWNEVADFYRKASELYVECGRAQPASDALGKAARALEDVKPDDAIQLYTDACEILEEDGRDQMAFDLYRACANVYIKLEKFTDAATFFLRLGVAADKCDATNSQCKAYLSAIILYLYAHDLQQAEKCYNDCSQIDAFLKSDQSRSASRLLTAYNEGDIEEIKKVASASTVSNLDHMIIKLARKLPTGDVTAIQMNTNDDLDEDDLT,soluble
